System: CCCC(=O)Oc1ccc([N+](=O)[O-])cc1
Assay: purified protein
Settings: pH 8.0; 25.0 °C

SfDLH (Solimonas fluminis)
Km: 160 µM
